From patent US20230110188A1 (ARGENX IIP, published 2023)

T1: Mouse MuSK as it stands on mouse muscle (neuromuscular junctions, C2C12 myotubes) (mouse, UniProt Q61006 22-868)
T1 sequence (looked up): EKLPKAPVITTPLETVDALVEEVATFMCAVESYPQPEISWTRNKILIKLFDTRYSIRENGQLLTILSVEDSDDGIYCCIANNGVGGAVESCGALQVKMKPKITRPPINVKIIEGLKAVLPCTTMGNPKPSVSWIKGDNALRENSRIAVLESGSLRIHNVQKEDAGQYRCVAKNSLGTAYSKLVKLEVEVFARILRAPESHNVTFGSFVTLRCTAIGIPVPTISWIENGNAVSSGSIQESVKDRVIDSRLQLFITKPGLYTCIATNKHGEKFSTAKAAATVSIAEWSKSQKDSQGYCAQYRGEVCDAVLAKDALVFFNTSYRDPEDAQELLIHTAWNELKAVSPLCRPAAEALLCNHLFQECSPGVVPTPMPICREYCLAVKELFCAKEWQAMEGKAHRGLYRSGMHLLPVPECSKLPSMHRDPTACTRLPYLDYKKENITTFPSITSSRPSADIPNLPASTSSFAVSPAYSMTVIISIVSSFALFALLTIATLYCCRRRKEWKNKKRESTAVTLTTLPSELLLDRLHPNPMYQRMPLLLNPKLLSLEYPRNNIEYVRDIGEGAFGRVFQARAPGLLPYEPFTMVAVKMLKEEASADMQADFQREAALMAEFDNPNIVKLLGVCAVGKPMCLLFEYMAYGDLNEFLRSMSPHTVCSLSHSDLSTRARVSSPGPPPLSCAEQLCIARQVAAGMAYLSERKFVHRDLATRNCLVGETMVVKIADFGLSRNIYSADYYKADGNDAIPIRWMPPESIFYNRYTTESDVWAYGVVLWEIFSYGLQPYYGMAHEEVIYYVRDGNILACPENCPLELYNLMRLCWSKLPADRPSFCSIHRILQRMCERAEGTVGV

T2: Human MuSK (R&D Systems, cat. 10189-MK, histidine tag) (human, UniProt O15146 24-495)
T2 construct: Bought protein; also called human monomeric MuSK-6xhis; not shown: histidine tag (6xhis)
T2 sequence: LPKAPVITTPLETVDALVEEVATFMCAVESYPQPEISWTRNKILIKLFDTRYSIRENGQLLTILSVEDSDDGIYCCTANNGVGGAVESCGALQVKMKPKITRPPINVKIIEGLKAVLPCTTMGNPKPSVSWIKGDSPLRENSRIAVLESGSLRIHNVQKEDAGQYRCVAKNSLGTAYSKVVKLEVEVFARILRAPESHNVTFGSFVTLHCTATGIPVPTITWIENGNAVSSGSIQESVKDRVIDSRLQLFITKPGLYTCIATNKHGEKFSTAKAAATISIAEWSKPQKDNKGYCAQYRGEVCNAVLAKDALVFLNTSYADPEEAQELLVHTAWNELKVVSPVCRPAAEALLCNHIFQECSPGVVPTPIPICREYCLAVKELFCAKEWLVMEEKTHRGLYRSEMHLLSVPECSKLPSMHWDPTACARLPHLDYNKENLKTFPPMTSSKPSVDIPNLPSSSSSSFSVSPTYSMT

T3: human monomeric MuSK FLAG streptavidin (in house produced, batch 27-6-2019) (human, UniProt O15146 24-495)
T3 construct: also called full length MuSK; not shown: FLAG and streptavidin tags
T3 sequence: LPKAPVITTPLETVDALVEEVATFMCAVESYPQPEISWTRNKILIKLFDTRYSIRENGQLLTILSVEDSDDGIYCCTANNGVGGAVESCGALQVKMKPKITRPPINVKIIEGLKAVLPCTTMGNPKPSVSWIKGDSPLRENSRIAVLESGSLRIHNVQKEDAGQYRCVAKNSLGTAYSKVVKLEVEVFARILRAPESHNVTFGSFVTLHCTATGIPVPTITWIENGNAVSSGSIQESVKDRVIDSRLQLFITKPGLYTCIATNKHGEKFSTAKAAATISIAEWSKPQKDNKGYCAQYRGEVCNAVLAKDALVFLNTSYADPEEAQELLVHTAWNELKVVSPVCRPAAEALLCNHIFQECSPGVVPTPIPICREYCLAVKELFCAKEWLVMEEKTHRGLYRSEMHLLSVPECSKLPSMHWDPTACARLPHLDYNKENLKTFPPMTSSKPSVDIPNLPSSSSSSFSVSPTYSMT


Columns and labels:
[1] = target: T1, Mouse MuSK as it stands on mouse muscle …; assay: cell-based or functional assay
[2] = target: T1, Mouse MuSK as it stands on mouse muscle …; assay: cell-based or functional assay; remark: listed apart in the source
[3] = target: T2, Human MuSK (R&D Systems, cat. 10189-MK, …); assay: SPR (Biacore), antibody captured on anti-hFc chip; 2.5 nM; dissociation pH 5.5
Description: (§1) In order to study pH dependent binding of our antibodies to MuSK, the Biacore was used with the same setup as described in the paragraph entitled “Binding affinity for mouse, human and rhesus monkey recombinant MuSK in Biacore”. 6. […] For the other antibodies there is no real difference observed between pH 7.4 and 5.5.

[4] = target: T2, Human MuSK (R&D Systems, cat. 10189-MK, …); assay: SPR (Biacore), antibody captured on anti-hFc chip; 5 nM; dissociation pH 5.5
Description: as §1

[5] = target: T1, Mouse MuSK as it stands on mouse muscle …; assay: cell-based or functional assay; remark: listed apart in the source
[6] = target: T3, human monomeric MuSK FLAG streptavidin …; assay: epitope binning ELISA (coated anti-MuSK Fab, MuSK, IgG, anti-Fc HRP); competitor: 3F6c
Experimental: For epitope binning—An ELISA plate was coated at 1 μg/ml of the anti-MuSK Fabs and incubated overnight at 4° C. Next, the plate was wash with PBS followed by blocking with 1% casein in PBS for one hour. After washing the plate, 1 μg/ml of human monomeric MuSK (in house produced, batch 27-6-2019) was incubated for one hour at RT. The plate was washed and anti-MuSK antibodies at 0.3-10 μg/ml were added to the plate and incubated for one hour at RT. After washing the plate, detection antibody (goat anti-human Fc HRP (Jackson Immunoresearch cat. 109-035-098)) was added at 5000 fold dilution in PBS 0.1% casein. The plate was incubated for one hour at RT and washed with PBS-T. TMB was added and the reaction was stopped by adding H2504. […]
For the epitope binning ELISA, a plate was coated with anti-MuSK Fab and human monomeric MuSK was added after blocking the plate. Next the different antibodies were added and allowed to bind.

[7] = target: T1, Mouse MuSK as it stands on mouse muscle …; assay: cell-based or functional assay; remark: listed apart in the source
[8] = target: T2, Human MuSK (R&D Systems, cat. 10189-MK, …); assay: SPR (Biacore), koff at pH 5.5 over koff at pH 7.4
Description: as §1

[9] = target: T2, Human MuSK (R&D Systems, cat. 10189-MK, …); assay: SPR (Biacore), antibody captured on anti-hFc chip; 0.625 nM; dissociation pH 5.5
Description: as §1

Row | Binder | AChR clusters larger or equal to 15 µm (large clusters) compared to agrin; antibody 0.11 µg/ml [1] | AChR clusters larger or equal to 15 µm (large clusters) compared to agrin; antibody 1.1 µg/ml [1] | AChR clusters larger or equal to 15 µm (large clusters) compared to agrin; antibody 11 µg/ml [1] | AChR clusters larger or equal to 15 µm (large clusters) compared to agrin; antibody 110 µg/ml [1] | AChR clusters larger or equal to 3 µm compared to agrin; Exp 1, batch Argenx [2] | AChR clusters larger or equal to 3 µm compared to agrin; Exp 2, batch Argenx [2] | AChR clusters larger or equal to 3 µm compared to agrin; Exp 3, batch UPX [2] | koff [3] [s⁻¹] | koff [4] [s⁻¹] | AChR clusters larger or equal to 3 µm compared to agrin; antibody 0.11 µg/mL [5] | AChR clusters larger or equal to 3 µm compared to agrin; antibody 1.1 µg/mL [5] | AChR clusters larger or equal to 3 µm compared to agrin; antibody 11 µg/mL [5] | AChR clusters larger or equal to 3 µm compared to agrin; antibody 110 µg/mL [5] | OD 450 nm [6] [OD] | AChR clusters larger or equal to 15 µm (large clusters) compared to agrin; Exp 1, batch Argenx [7] | AChR clusters larger or equal to 15 µm (large clusters) compared to agrin; Exp 2, batch Argenx [7] | AChR clusters larger or equal to 15 µm (large clusters) compared to agrin; Exp 3, batch UPX [7] | Fold difference (5.5/7.4) of koff [8] [fold] | koff [9] [s⁻¹]
1 | 3D10a (antibody, human IgG1, kappa, L234A L235A, V domains shown) VH: EVQLVESGGGLVKPGGSLRLSCAASGFTFSASTMAWVRQAPGKGLEWVSSVSGDSHHIYYADSLKGRFTISRDNAKNSLYLQMNSLRAEDTAVYYCARERLLRLGVGFDSWGQGTLVTVSS VL: DIQMTQSPSSLSASVGDRVTITCRASQRISGFVNWYQQKPGKAPKLLIYAASTLQSGVPSRFSGSGSGTDFTLTISSLQPEDFATYYCQQSYSPLYTFGQGTKLEIKR | 62 % of agrin | 64 % of agrin | 61 % of agrin | 58 % of agrin | 64 % of agrin | 99 % of agrin | 71 % of agrin | 9e-05 | 0.0001 | 80 % of agrin | 79 % of agrin | 76 % of agrin | 73 % of agrin | 0.162 | 52 % of agrin | 73 % of agrin | 61 % of agrin | 0.6 | 0.00012
2 | 4D3 (antibody, human IgG1, kappa, L234A L235A, V domains shown) VH: EVQLVESGGGLVKPGGSLRLSCAASGFTFSSYTMTWVRQAPGKGLEWVSSISSGGHYIYYTDSLKGRFTISRDNAKNSLYLQMNSLRAEDTAVYYCARERLLRLGVGFDFWGQGTLVTVSS VL: DIQMTQSPSSLSASVGDRVTITCRASQSISGYLNWYQQKPGKAPKLLIYAASTLQSGVPSRFSGSGSGTDFTLTISSLQPEDFATYYCQQSYSALYTFGQGTKLEIKR | 44 % of agrin | 58 % of agrin | 61 % of agrin | 58 % of agrin | 102 % of agrin | 73 % of agrin | 72 % of agrin | 0.00014 | 0.00018 | 63 % of agrin | 80 % of agrin | 80 % of agrin | 75 % of agrin | 0.1 | 84 % of agrin | 58 % of agrin | 59 % of agrin | 1.1 | 0.00013
3 | 3F6c (antibody, human IgG1, kappa, L234A L235A, V domains shown) VH: EVQLVESGGGLVKPGGSLRLSCAASGFTFSSYTMDWVRQAPGKGLEWVSSIGSNGDYIYYADSVRGRFTISRDNAKNSLYLQMNSLRAEDTAVYYCARGQLAVAGTHFDYWGQGTLVTVSS VL: DIQMTQSPSSLSASVGDRVTITCRASQKVNKYVNWYQQKPGKAPKLLIYAASTLQSGVPSRFSGSGSGTDFTLTISSLQPEDFATYYCQQSYSPLSTFGQGTKLEIKR | 60 % of agrin | 46 % of agrin | 51 % of agrin | 50 % of agrin | 71 % of agrin | 105 % of agrin | 69 % of agrin | 0.0002 | 0.0002 | 74 % of agrin | 57 % of agrin | 62 % of agrin | 61 % of agrin | 0.156 | 56 % of agrin | 70 % of agrin | 57 % of agrin | 2.5 | 0.00014
4 | 3D9b (antibody, human IgG1, kappa, L234A L235A, V domains shown) VH: EVQLVESGGGLVKPGGSLRLSCAASGFTFSTYTMHWVRQAPGKGLEWVSSISSRSAYKYYADSVKGRFTISRDNAKNSLYLQMNSLRAEDTAVYYCARDFFQLGPPRFDSWGQGTLVTVSS VL: DIQMTQSPSSLSASVGDRVTITCRASQRISSFLNWYQQKPGKAPKLLIYGASNLQSGVPSRFSGSGSGTDFTLTISSLQPEDFATYYCQQSYSPSYTFGQGTKLEIKR | 49 % of agrin | 84 % of agrin | 79 % of agrin | 66 % of agrin | 89 % of agrin | 95 % of agrin | 91 % of agrin | 4e-05 | 4e-05 | 65 % of agrin | 99 % of agrin | 93 % of agrin | 84 % of agrin | 0.186 | 80 % of agrin | 74 % of agrin | 70 % of agrin | 0.3 | 4e-05
